Data published in US20180009908.

How the values were obtained:
[1] = molecular target: BHA10 HC_20.8_B + BHA10 LC (IgG1); assay: LCMS, IgG1 BsAb co-expression in HEK293F
[2] = molecular target: matuzumab HC_20.8_B + matuzumab LC (IgG1); assay: LCMS, IgG1 BsAb co-expression in HEK293F
[3] = LCMS, IgG1 BsAb co-expression; HCA homodimer species
[4] = molecular target: BHA10 HC_20.8_B + BHA10 LC (IgG1); assay: LCMS, IgG1 BsAb co-expression; HCA/HCB heterodimer carrying two LC1
[5] = molecular target: matuzumab HC_20.8_B + matuzumab LC (IgG1); assay: as above
[6] = molecular target: BHA10 HC_20.8_B + BHA10 LC (IgG1); assay: LCMS, IgG1 BsAb co-expression; HCA/HCB heterodimer carrying two LC2
[7] = molecular target: matuzumab HC_20.8_B + matuzumab LC (IgG1); assay: as above
[8] = molecular target: matuzumab HC_7.8.60_B + matuzumab LC (IgG4 HC backbone); assay: LCMS, IgG4 BsAb co-expression in HEK293F
[9] = LCMS, IgG4 BsAb co-expression; HCA homodimer species
[10] = molecular target: matuzumab HC_7.8.60_B + matuzumab LC (IgG4 HC backbone); assay: LCMS, IgG4 BsAb co-expression; HCA/HCB heterodimer carrying two LC1
[11] = molecular target: matuzumab HC_7.8.60_B + matuzumab LC (IgG4 HC backbone); assay: LCMS, IgG4 BsAb co-expression; HCA/HCB heterodimer carrying two LC2
[12] = molecular target: matuzumab HC_20.8.34_B + matuzumab LC (IgG4 HC backbone); assay: LCMS, IgG4 BsAb co-expression in HEK293F
[13] = molecular target: matuzumab HC_20.8.34_B + matuzumab LC (IgG4 HC backbone); assay: LCMS, IgG4 BsAb co-expression; HCA/HCB heterodimer carrying two LC1
[14] = molecular target: matuzumab HC_20.8.34_B + matuzumab LC (IgG4 HC backbone); assay: LCMS, IgG4 BsAb co-expression; HCA/HCB heterodimer carrying two LC2
[15] = molecular target: T1, HA-tagged human IgG1 Fc portion with CH3 mutations E356G, E357D, S364Q, Y407A; assay: UPLC SEC of protein G-purified one-arm antibody co-expressed in HEK293F
T1 chain: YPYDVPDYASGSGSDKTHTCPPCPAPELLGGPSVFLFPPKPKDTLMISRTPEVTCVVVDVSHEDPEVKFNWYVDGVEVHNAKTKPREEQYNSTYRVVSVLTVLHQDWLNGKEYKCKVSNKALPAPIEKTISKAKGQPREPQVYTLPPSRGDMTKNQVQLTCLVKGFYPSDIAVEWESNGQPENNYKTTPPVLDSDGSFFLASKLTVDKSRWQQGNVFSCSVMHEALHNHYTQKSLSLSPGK

[16] = molecular target: T2, HA-tagged human IgG1 Fc portion with CH3 mutations E357D, S364Q, Y407A; assay: as above
T2 chain: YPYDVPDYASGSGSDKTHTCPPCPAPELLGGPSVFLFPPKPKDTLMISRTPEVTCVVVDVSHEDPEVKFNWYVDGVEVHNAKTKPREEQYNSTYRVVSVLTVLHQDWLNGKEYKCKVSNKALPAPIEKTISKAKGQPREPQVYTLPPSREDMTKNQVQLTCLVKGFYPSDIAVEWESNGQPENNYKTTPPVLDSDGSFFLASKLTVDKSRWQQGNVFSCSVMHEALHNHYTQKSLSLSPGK

[17] = molecular target: T3, HA-tagged human IgG1 Fc portion with CH3 mutations E357D, S364R, Y407A; assay: as above
T3 chain: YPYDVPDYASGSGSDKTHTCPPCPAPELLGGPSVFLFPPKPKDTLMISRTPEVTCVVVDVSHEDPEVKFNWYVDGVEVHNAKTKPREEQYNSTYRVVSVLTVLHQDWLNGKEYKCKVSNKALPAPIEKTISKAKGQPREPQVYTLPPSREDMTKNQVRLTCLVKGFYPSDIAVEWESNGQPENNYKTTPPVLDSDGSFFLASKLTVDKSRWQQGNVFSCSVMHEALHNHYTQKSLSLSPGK

B1: pertuzumab HC_20.8_A + pertuzumab LC (IgG1) (protein)
chain 1: EVQLVESGGGLVQPGGSLRLSCAASGFTFTDYTMDWVRKAPGKGLEWVADVNPNSGGSIYNQEFKGRFTLSVDRSKNTLYLQMNSLRAEDTAVYYCARNLGPSFYFDYWGQGTLVTVSSASTKGPSVFPLAPSSKSTSGGTAALGCLVKDYFPEPVTVSWNSGALTSGVATGPAVLQSSGLYSLSSVVTVPSSSLGTQTYICNVNHKPSNTKVDKKVEPKSCDKTHTCPPCPAPELLGGPSVFLFPPKPKDTLMISRTPEVTCVVVDVSHEDPEVKFNWYVDGVEVHNAKTKPREEQYQSTYRVVSVLTVLHQDWLNGKEYKCKVSNKALPAPIEKTISKAKGQPREPQVSTLPPSREEMTKNQVSLVCLVYGFYPSDIAVEWESNGQPENNYKTTPPVLDSDGSFFLYSVLTVDKSRWQQGNVFSCSVMHEALHNHYTQKSLSLSPGK
chain 2: RIQMTQSPSSLSASVGDRVTITCKASQDVSIGVAWYQDKPGKAPKLLIYSASYRYTGVPSRFSGSGSGTDFTLTISSLQPEDFATYYCQQYYIYPYTFGQGTKVEIKGQPKAAPSVTLFPPSSEELQANKATLVCYISDFYPGAVTVAWKADSSPVKAGVETTTPSKQSNNKYAAWSYLSLTPEQWKSHRSYSCQVTHEGSTVEKTVAPTEC
[1]
  % AB (LC1/LC2) (correct IgG BsAb assembly): 96.5%
[2]
  % AB (LC1/LC2) (correct IgG BsAb assembly): 96%
[3]; pertuzumab × BHA10 bispecific
  % AA Homodimer (incorrect assembly): 3.5%
[3]; pertuzumab × matuzumab bispecific
  % AA Homodimer (incorrect assembly): 2.1%
[4]
  % AB (2x LC1) (incorrect assembly): 0%
[5]
  % AB (2x LC1) (incorrect assembly): 0%
[6]
  % AB (2x LC2) (incorrect assembly): 0%
[7]
  % AB (2x LC2) (incorrect assembly): 0%

B2: MetMAb HC_7.8.60_A + MetMAb LC (IgG4 HC backbone) (protein)
chain 1: EVQLVESGGGLVQPGGSLRLSCAASGYTFTSYWLHWVRKAPGKGLEWVGMIDPSNSDTRFNPEFKDRFTISADTSKNTAYLQMNSLRAEDTAVYYCATYRSYVTPLDYWGQGTLVTVSSASTKGPSVFPLAPCSRSTSESTAALGCLVKDYFPEPVTVSWNSGALTSGVATGPAVLQSSGLYSLSSVVTVPSSSLGTKTYTCNVDHKPSNTKVDKRVESKYGPPCPPCPAPEAAGGPSVFLFPPKPKDTLMISRTPEVTCVVVDVSQEDPEVQFNWYVDGVEVHNAKTKPREEQFQSTYRVVSVLTVLHQDWLNGKEYKCKVSNKGLPSSIEKTISKAKGQPREPQVYTLPPSQEEMTDNQVSLTCLVKGFYPSDIAVEWESNGQPENNYKTTPPVLMSDGSFFLASRLTVDKSRWQEGNVFSCSVMHEALHNHYTQKSLSLSLG
chain 2: RIQMTQSPSSLSASVGDRVTITCKSSQSLLYTSSQKNYLAWYQDKPGKAPKLLIYWASTRESGVPSRFSGSGSGTDFTLTISSLQPEDFATYYCQQYYAYPWTFGQGTKVEIKGQPKAAPSVTLFPPSSEELQANKATLVCYISDFYPGAVTVAWKADSSPVKAGVETTTPSKQSNNKYAAWSYLSLTPEQWKSHRSYSCQVTHEGSTVEKTVAPTEC
[8]
  % AB (LC1/LC2) (correct IgG BsAb assembly): 100%
[9]
  % AA Homodimer (incorrect assembly): 0%
[10]
  % AB (2x LC1) (incorrect assembly): 0%
[11]
  % AB (2x LC2) (incorrect assembly): 0%

B3: MetMAb HC_20.8.34_A + MetMAb LC (IgG4 HC backbone) (protein)
chain 1: EVQLVESGGGLVQPGGSLRLSCAASGYTFTSYWLHWVRKAPGKGLEWVGMIDPSNSDTRFNPEFKDRFTISADTSKNTAYLQMNSLRAEDTAVYYCATYRSYVTPLDYWGQGTLVTVSSASTKGPSVFPLAPCSRSTSESTAALGCLVKDYFPEPVTVSWNSGALTSGVATGPAVLQSSGLYSLSSVVTVPSSSLGTKTYTCNVDHKPSNTKVDKRVESKYGPPCPPCPAPEAAGGPSVFLFPPKPKDTLMISRTPEVTCVVVDVSQEDPEVQFNWYVDGVEVHNAKTKPREEQFQSTYRVVSVLTVLHQDWLNGKEYKCKVSNKGLPSSIEKTISKAKGQPREPQVSTLPPSQEEMTKNQVSLMCLVYGFYPSDIAVEWESNGQPENNYKTTPPVLDSDGSFFLYSVLTVDKSRWQEGNVFSCSVMHEALHNHYTQKSLSLSLG
chain 2: RIQMTQSPSSLSASVGDRVTITCKSSQSLLYTSSQKNYLAWYQDKPGKAPKLLIYWASTRESGVPSRFSGSGSGTDFTLTISSLQPEDFATYYCQQYYAYPWTFGQGTKVEIKGQPKAAPSVTLFPPSSEELQANKATLVCYISDFYPGAVTVAWKADSSPVKAGVETTTPSKQSNNKYAAWSYLSLTPEQWKSHRSYSCQVTHEGSTVEKTVAPTEC
[12]
  % AB (LC1/LC2) (correct IgG BsAb assembly): 100%
[9]
  % AA Homodimer (incorrect assembly): 0%
[13]
  % AB (2x LC1) (incorrect assembly): 0%
[14]
  % AB (2x LC2) (incorrect assembly): 0%

B4: anti-c-Met 5D5 VH-human IgG1 HC with CH3 mutations Y349S, K370Y, T366V, K409V, with 5D5 light chain (protein)
chain 1: EVQLVESGGGLVQPGGSLRLSCAASGYTFTSYWLHWVRQAPGKGLEWVGMIDPSNSDTRFNPNFKDRFTISADTSKNTAYLQMNSLRAEDTAVYYCATYRSYVTPLDYWGQGTLVTVSSASTKGPSVFPLAPSSKSTSGGTAALGCLVKDYFPEPVTVSWNSGALTSGVHTFPAVLQSSGLYSLSSVVTVPSSSLGTQTYICNVNHKPSNTKVDKRVEPKSCDKTHTCPPCPAPELLGGPSVFLFPPKPKDTLMISRTPEVTCVVVDVSHEDPEVKFNWYVDGVEVHNAKTKPREEQYNSTYRVVSVLTVLHQDWLNGKEYKCKVSNKALPAPIEKTISKAKGQPREPQVSTLPPSREEMTKNQVSLVCLVYGFYPSDIAVEWESNGQPENNYKTTPPVLDSDGSFFLYSVLTVDKSRWQQGNVFSCSVMHEALHNHYTQKSLSLSPGK
chain 2: DIQMTQSPSSLSASVGDRVTITCKSSQSLLYTSSQKNYLAWYQQKPGKAPKLLIYWASTRESGVPSRFSGSGSGTDFTLTISSLQPEDFATYYCQQYYAYPWTFGQGTKVEIKRTVAAPSVFIFPPSDEQLKSGTASVVCLLNNFYPREAKVQWKVDNALQSGNSQESVTEQDSKDSTYSLSSTLTLSKADYEKHKVYACEVTHQGLSSPVTKSFNRGEC
[15]
  % heterodimer (UPLC): 93%
[16]
  % heterodimer (UPLC): 84.9%
[17]
  % heterodimer (UPLC): 86.5%

B5: anti-c-Met 5D5 VH-human IgG1 HC with CH3 mutations Y349S, K370Y, T366M, K409V, with 5D5 light chain (protein)
chain 1: EVQLVESGGGLVQPGGSLRLSCAASGYTFTSYWLHWVRQAPGKGLEWVGMIDPSNSDTRFNPNFKDRFTISADTSKNTAYLQMNSLRAEDTAVYYCATYRSYVTPLDYWGQGTLVTVSSASTKGPSVFPLAPSSKSTSGGTAALGCLVKDYFPEPVTVSWNSGALTSGVHTFPAVLQSSGLYSLSSVVTVPSSSLGTQTYICNVNHKPSNTKVDKRVEPKSCDKTHTCPPCPAPELLGGPSVFLFPPKPKDTLMISRTPEVTCVVVDVSHEDPEVKFNWYVDGVEVHNAKTKPREEQYNSTYRVVSVLTVLHQDWLNGKEYKCKVSNKALPAPIEKTISKAKGQPREPQVSTLPPSREEMTKNQVSLMCLVYGFYPSDIAVEWESNGQPENNYKTTPPVLDSDGSFFLYSVLTVDKSRWQQGNVFSCSVMHEALHNHYTQKSLSLSPGK
chain 2: DIQMTQSPSSLSASVGDRVTITCKSSQSLLYTSSQKNYLAWYQQKPGKAPKLLIYWASTRESGVPSRFSGSGSGTDFTLTISSLQPEDFATYYCQQYYAYPWTFGQGTKVEIKRTVAAPSVFIFPPSDEQLKSGTASVVCLLNNFYPREAKVQWKVDNALQSGNSQESVTEQDSKDSTYSLSSTLTLSKADYEKHKVYACEVTHQGLSSPVTKSFNRGEC
[15]
  % heterodimer (UPLC): 83.8%
[16]
  % heterodimer (UPLC): 86%
[17]
  % heterodimer (UPLC): 83.5%
